Assay results published in patent US20020052476A1 (Human Genome Sciences, published 2002).

T1: papain (EC 3.4.22.2; from Sigma) (UniProt P00784 134-345)
T1 construct: Commercial enzyme
T1 sequence (looked up): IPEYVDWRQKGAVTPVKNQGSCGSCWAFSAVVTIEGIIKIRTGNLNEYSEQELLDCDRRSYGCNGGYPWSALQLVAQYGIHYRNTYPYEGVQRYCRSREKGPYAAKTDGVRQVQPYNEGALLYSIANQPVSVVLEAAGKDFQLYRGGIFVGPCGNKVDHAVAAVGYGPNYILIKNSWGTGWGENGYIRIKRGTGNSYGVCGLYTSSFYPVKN

T2: m-CysE (mutant CysE: amino acids 29-143 of SEQ ID NO: 2 plus a 27 amino acid C-terminal fusion product encoded by the pA2 vector)
T2 chain: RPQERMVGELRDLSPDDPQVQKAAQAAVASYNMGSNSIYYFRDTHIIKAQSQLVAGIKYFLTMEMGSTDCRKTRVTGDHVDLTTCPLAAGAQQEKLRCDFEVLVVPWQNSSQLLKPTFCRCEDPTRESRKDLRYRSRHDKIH

T3: recombinant human cystatin E (mature CysE secreted from baculovirus-infected Sf9 cells)
T3 chain: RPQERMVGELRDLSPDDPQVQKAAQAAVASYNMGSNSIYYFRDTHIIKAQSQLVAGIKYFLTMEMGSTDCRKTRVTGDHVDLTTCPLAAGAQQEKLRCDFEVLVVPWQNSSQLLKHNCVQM

B1: recombinant human cystatin E (mature CysE secreted from baculovirus-infected Sf9 cells) (other)
chain: T3 chain
modifications: partly N-glycosylated (protein band doublet, a glycosylated and an unglycosylated form)
notes: Full-length cDNA was expressed in Sf9 cells; also called recombinant CysE
B2: papain (EC 3.4.22.2; from Sigma) (protein)
chain: T1 sequence (looked up)

Tests used:
[1] = biological target: T1, papain (EC 3.4.22.2; from Sigma); assay: titration of papain activity (Bz-Arg-pNA hydrolysis) with varying inhibitor concentrations; linear titration curves
Text: To test the function of CysE and m-CysE as protease inhibitors their effect on papain hydrolysis of casein was investigated according to the method of Example 10. […] The m-CysE mutant performed similarly (data not shown).
The methods used for active site titration of papain, titration of the molar enzyme inhibitory concentration in cystatin E preparations, and for determination of equilibrium constants for dissociation (Ki) of complexes between cystatin E and cysteine peptidases are described in detail in Hall et al., Biochem. J., 291:123-29 (1993) and Abrahamson, Methods Enzymol., 244:685-700 (1994), both of which are hereby incorporated herein by reference. The enzymes used for equilibrium assays were papain (EC 3.4.22.2; from Sigma, St Louis, Mo.) and cathepsin B (EC 3.4.22.1; from Calbiochem, La Jolla, Calif.). […] Steady state velocities were measured and Ki values were calculated according to Henderson, Biochem J., 127:321-333 (1972), incorporated herein by reference. Corrections for substrate competition were made using Km values of 150=B5M for cathepsins B (Barrett and Kirschke, Methods Enzymol., 80:535-561 (1981) and 60=B5M for papain (Hall et al., Biochem. J., 291:123-29 (1992)), both of which are hereby incorporated herein by reference.

[2] = biological target: T2, m-CysE (mutant CysE: amino acids 29-143 …)
[3] = biological target: T3, recombinant human cystatin E (mature …)

| Binder | Ki [1] [nM] | papain hydrolysis of casein [2] | papain hydrolysis of Bz-Arg-pNA in 10 minute assays [3] | papain hydrolysis of casein [3] |
| --- | --- | --- | --- | --- |
| B1 | < 10 |  |  |  |
| B2 |  | Both CysE and m-CysE showed a dose- and time-dependent inhibition of papain activity (data not shown) | At mM concentrations, the recombinant CysE completely inhibited papain hydrolysis of Bz-Arg-pNA in 10 minute assays | Both CysE and m-CysE showed a dose- and time-dependent inhibition of papain activity (data not shown) |
